Results reported in article PMC7145654.
Like-named read-outs stand apart in the source and are kept apart here.

T1: RadD (Escherichia coli, UniProt P33919 1-586)
T1 sequence: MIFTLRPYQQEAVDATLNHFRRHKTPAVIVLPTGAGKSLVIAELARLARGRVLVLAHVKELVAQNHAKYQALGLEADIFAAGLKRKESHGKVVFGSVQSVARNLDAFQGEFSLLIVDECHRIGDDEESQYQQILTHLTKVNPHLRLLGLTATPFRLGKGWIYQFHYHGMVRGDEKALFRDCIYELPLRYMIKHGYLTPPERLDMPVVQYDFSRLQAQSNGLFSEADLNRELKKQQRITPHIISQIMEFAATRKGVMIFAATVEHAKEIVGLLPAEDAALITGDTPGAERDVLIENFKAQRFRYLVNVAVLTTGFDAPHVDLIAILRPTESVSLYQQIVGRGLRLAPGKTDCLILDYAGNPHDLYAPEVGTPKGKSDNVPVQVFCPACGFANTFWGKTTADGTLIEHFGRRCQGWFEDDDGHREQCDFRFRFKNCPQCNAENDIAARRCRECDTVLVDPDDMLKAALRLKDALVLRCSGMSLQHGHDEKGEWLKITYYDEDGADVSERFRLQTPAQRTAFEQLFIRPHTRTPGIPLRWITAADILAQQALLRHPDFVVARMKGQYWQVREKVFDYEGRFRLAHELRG

B1: three-way junction (OH1/OH4/3W) (structured_DNA)
DNA 1: CCCGTGATCACCAATGCAGATTGACGAACCTTTGCCCACGT
DNA 2: GGCAGTAGGCCTAGCATGACAATCTGCATTGGTGATCACGG
DNA 3: GACGTGGGCAAAGGTTCGTCGTCATGCTAGGCCTACTGC
B2: Holliday junction (OH1-OH4) (structured_DNA)
DNA 1: CCCGTGATCACCAATGCAGATTGACGAACCTTTGCCCACGT
DNA 2: GACGTGGGCAAAGGTTCGTCAATGGACTGACAGCTGCATGG
DNA 3: GCCATCCAGCTGTCAGTCCATTGTCATGCTAGGCCTACTGC
DNA 4: GGCAGTAGGCCTAGCATGACAATCTGCATTGGTGATCACGG
B3: linear duplex (ZJRds1/ZJRds2) (dsDNA)
DNA 1: GCAATTAAGCTCTAAGCCATCCGCAAAAATGACCTCTTATCAAAAGGA
DNA 2: TCCTTTTGATAAGAGGTCATTTTTGCGGATGGCTAAGAGCTTAATTGC

Experiments:
[1] = biological target: T1, RadD; assay: fluorescence anisotropy
[2] = biological target: T1, RadD; assay: fluorescence anisotropy; remark: listed apart in the source
[3] = biological target: T2, Uup (Escherichia coli, UniProt P43672 1-635); assay: EMSA
T2 sequence (P43672 whole entry): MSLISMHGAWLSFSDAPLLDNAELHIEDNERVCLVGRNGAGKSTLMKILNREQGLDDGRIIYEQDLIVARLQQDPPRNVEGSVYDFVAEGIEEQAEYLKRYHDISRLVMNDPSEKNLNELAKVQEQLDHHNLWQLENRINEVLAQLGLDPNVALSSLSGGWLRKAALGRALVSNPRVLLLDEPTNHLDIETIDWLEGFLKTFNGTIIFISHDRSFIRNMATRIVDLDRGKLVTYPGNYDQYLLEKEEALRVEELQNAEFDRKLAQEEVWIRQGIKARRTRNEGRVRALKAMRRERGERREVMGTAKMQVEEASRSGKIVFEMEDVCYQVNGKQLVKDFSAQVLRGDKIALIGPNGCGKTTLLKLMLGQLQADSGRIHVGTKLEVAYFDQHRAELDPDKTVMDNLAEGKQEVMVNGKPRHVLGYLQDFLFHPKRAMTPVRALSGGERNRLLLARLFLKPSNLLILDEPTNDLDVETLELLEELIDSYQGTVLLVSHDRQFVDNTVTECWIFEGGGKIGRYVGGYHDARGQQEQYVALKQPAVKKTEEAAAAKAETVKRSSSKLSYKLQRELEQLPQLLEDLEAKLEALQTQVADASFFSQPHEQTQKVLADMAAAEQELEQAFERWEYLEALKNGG

[4] = biological target: T2, Uup; assay: EMSA; remark: listed apart in the source

Row | Binder | binding result [1] | binding result [2] | binding result [3] | binding result [4]
1 | B1 | binds | – | – | –
2 | B2 | – | no binding | binds | –
3 | B3 | – | no binding | – | no binding
